Measurements taken from US20240026343A1, “METHOD FOR SCREENING DIMERIZED CYCLIC PEPTIDE” (AJINOMOTO CO., INC., priority 2021, published 2024).

B1: EMP-Jun-cys-N11-SecM-GS3: EMP-leucine zipper fusion for ribosome display, SEQ ID NO: 87 (protein)
chain: MAETGGLYACHMGPMTWVCQPLRGAAPAAPAPAAGGRIARLEEKVKTLKAQNSELASTANMLREQVAQLKQKVMNGCGGKDHLIHNHHKHEHAHAEHLFSTPVWISQAQGIRAGGSGSGS
modifications: EMP-Jun-cys-N11-SecM-GS3; DISULFID 10..19 Disulfide bridge between Cys-10 and Cys-19
B2: aMD4dY-Jun-cys-N11-SecM-GS3: c-Met binding cyclic peptide-leucine zipper fusion for ribosome display, SEQ ID NO: 71 (protein)
chain: MAETCRQFNRRTHEVWNLDCGAAPAAPAPAAGGRIARLEEKVKTLKAQNSELASTANMLREQVAQLKQKVMNGCGGKDHLIHNHHKHEHAHAEHLFSTPVWISQAQGIRAGGSGSGS
modifications: aMD4dY-Jun-cys-N11-SecM-GS3; DISULFID 5..20 Disulfide bridge between Cys-5 and Cys-20

How the values were obtained:
[1] = target: T1, Recombinant Human Erythropoietin R Fc Chimera Protein (Homo sapiens, UniProt P19235); experiment: Ribosome display enrichment on immobilized EPO receptor (Example 5); format: binding; conditions: starting DNA mix 1:50:50 (EMP:aMD4dY:TPO fusions); one round; FIGS. 17, 18
T1 construct: purchased R&D systems 963-ER-50
T1 sequence (P19235 with tags, fused parts or gaps limits assumed): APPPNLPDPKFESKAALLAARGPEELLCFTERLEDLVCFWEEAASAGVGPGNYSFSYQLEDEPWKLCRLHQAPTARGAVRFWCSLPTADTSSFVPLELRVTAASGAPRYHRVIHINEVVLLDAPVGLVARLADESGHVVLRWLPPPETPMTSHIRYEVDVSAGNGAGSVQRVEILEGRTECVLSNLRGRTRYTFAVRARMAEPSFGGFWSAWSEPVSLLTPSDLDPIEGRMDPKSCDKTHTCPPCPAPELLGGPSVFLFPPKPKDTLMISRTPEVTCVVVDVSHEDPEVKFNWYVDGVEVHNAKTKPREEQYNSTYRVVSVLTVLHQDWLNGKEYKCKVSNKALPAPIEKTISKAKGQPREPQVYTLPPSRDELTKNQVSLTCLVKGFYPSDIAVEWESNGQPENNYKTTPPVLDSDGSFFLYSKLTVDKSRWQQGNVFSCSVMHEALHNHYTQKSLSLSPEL
Description: The DNA sequence of EMP-Jun-cys-N11-SecM-GS3 was prepared by PCR. Two types of DNA sequences, aMD4dY-Jun-cys-N11-SecM-GS3 and TPO-Jun-cys-N11-SecM-GS3, prepared in Example 4 were used. A DNA mix was prepared by mixing DNAs, EMP-Jun-cys-N11-SecM-GS3, aMD4dY-Jun-cys-N11-SecM-GS3, and TPO-Jun-cys-N11-SecM-GS3, at a ratio of 1:50:50.
(§1) DNA transcription was carried out using T7 RNA polymerase. T7 RNA polymerase (Takara Bio, 2540A) and rNTPs (Promega, E6000) as well were used for transcription. 11 μL of ultrapure water, 2 μL of 10×T7 RNA polymerase buffer, 2 μL of 50 mM DTT, 2 μL of 25 mM rNTPs, 1 μL of T7 RNA polymerase, and 1 μL of DNA mix were mixed and reacted in a constant temperature bath at 37° C. for 6 hours. A 50 mM EDTA solution was then added. It was purified with RNA Clean & Concentrator 5 (ZYMO […], R1015) and made into a 2 μM mRNA mix.
PURExpress ΔRF1,2,3 kit was used for translation expression of the prepared library. 2 μL of solution A, 1.5 μL of solution B, 1 μL of mRNA mix, and 0.5 μL of ultrapure water were mixed and cultured in a 37° C. constant temperature bath for 2 hours. […]
Three types of DNAs, EMP-Jun-cys-N11-SecM-GS3, aMD4dY-Jun-cys-N11-SecM-GS3, and TPO-Jun-cys-N11-SecM-GS3, along with DNA mix and DNA mix2 were evaluated with 2100 Bioanalyzer (Agilent technologies). […]

HGF-Erk-SRE pathway = experiment: SRE luciferase reporter assay of cell-free translation products from ribosome display DNAs (Example 4); format: cell-based; conditions: HEK293E cells with SRE reporter; cell-free translation product at 25- to 625-fold dilution; HGF comparator; FIG. 16
Description: For cell-free translation, to 20 ng of each DNA, 2.5 μL of Solution I, 0.25 μL of Solution II, 0.5 μL of Solution III, and 1.75 μL of water were added, and the mixture was incubated at 37° C. for 6 hours to carry out the translation reaction.
Reporter assays were carried out as follows. To 25 μL of Opti-MEM medium (Thermo Fisher Scientific), 0.6 μL of Attractene Transfection Reagent (QIAGEN) was added and incubated at room temperature for 5 minutes. To the above mixed solution, a mixed solution of 25 μL of Opti-MEM and 1 μL of SRE reporter vector (QIAGEN) was added and incubated at room temperature for 20 minutes. This mixed solution was added to a 96-well plate, HEK293E cells were seeded thereon at 40,000 cells/well, and incubated overnight at 37° C. in a 5% CO2 incubator. After transfection, all the culture supernatant was removed, and 100 μL of Opti-MEM medium (evaluation basal medium), containing 0.5% FBS (Thermo Fisher Scientific), 1% non-essential amino acid solution (Thermo Fisher Scientific), and penicillin-streptomycin (Nacalai Tesque), was added thereto, which was cultured at 37° C. for 4 hours to starve the cells.
To the evaluation basal medium, 0 to 100 ng/mL HGF was added, or the above cell-free expression reaction solution was added at a 25- to 625-fold dilution with respect to the medium, and 100 μL of the evaluation basal medium was added to the cells. The cells were stimulated by culturing overnight at 37° C. in a 5% CO2 incubator.
Dual-Luciferase Reporter Assay System (Promega) was used for signal intensity detection. […] Activation of the HGF-Erk-SRE pathway was quantified by detecting Firefly luciferase luminescence from cell lysates with a plate reader. Subsequently, 50 μL of Glo & Stop reagent solution was added, and after 10 minutes, luminescence of Renilla luciferase, an internal standard, was detected to quantify the cell count. The signal activity of each sample was quantified as SRE activity=(luminescence intensity of Firefly luciferase)/(luminescence intensity of Renilla luciferase). […]

[2] = target: T2, Recombinant Human HGFR/c-MET Fc Chimera Protein (Homo sapiens, UniProt P08581); experiment: Ribosome display enrichment on immobilized c-Met (Example 4); format: binding; conditions: starting DNA mix 1:50:50 (aMD4dY:TPO:EMP′ fusions); one round; FIGS. 15, 16
T2 construct: purchased R&D systems 8614-MT-100
T2 sequence (P08581 with tags, fused parts or gaps limits assumed): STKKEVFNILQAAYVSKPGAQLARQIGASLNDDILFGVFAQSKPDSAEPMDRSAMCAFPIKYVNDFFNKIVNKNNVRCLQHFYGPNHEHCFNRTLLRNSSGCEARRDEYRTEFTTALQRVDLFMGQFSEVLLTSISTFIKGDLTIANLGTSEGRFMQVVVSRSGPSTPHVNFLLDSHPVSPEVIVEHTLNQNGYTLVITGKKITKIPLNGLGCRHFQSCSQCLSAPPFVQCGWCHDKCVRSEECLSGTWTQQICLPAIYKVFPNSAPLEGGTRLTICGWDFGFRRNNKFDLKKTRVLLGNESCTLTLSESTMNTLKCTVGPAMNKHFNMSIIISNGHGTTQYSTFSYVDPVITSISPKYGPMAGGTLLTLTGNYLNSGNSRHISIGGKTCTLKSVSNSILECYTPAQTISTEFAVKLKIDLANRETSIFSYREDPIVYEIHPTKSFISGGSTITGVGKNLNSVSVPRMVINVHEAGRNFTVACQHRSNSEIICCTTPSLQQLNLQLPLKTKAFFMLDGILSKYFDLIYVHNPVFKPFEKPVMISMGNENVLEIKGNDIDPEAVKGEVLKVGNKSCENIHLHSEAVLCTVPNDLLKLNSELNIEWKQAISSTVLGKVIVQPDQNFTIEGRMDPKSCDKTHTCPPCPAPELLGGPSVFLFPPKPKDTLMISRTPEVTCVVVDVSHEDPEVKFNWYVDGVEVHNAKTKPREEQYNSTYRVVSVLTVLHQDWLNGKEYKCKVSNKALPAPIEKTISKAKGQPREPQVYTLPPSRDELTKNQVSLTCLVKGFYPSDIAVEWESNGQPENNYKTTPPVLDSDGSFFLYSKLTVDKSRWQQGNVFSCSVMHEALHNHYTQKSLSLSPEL
T2 sequence (P08581 25-307 limits assumed, change not shown): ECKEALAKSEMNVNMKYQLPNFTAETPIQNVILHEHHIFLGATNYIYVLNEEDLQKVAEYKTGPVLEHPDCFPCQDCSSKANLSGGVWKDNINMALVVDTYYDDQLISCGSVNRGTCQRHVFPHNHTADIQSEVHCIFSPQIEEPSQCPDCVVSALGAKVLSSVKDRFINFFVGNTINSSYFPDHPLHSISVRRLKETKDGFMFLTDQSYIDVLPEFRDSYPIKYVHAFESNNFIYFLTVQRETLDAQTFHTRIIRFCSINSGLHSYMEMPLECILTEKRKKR
Description: as §1, with “E6000)” for “E6000) as well”
PURExpress ΔRF1,2,3 kit was used for translation expression of the prepared library. 2 μL of solution A, 1.5 μL of solution B, 1 μL of mRNA mix, and 0.5 μL of ultrapure water were mixed and cultured in a 37° C. constant temperature bath for 2 hours. After the reaction, the reaction vessel was placed on ice, and 20 μL of ice-cold 1×TBSM-T buffer (50 mM Tris-HCl, 150 mM NaCl, 50 mM MgCl2, 0.05% Tween 20) was added to the formed ribosome-cyclic peptide-leucine zipper fusion-mRNA complex. This complex reaction solution was used in (4-7) below.
Immobilization of target molecules to magnetic beads was carried out. […]

Molecule	enrichment in DNA mix2 after ribosome display against EPO receptor [1]	relative SRE reporter activity (relative receptor activity) (HGF-Erk-SRE pathway)	enrichment in DNA mix2 after ribosome display against c-Met [2]
B1	enriched	–	–
B2	–	showed activity	enriched
